# Measured values taken from article PMC5771398, “Structural basis for assembly of the CBF3 kinetochore complex” (The EMBO Journal, 2017).
# What was measured:
# Conditions in all cases: protein: recombinant;recombinant;recombinant; tags: C-terminal TEV-cleavable double-StrepTactin tag (cleaved);;; chain copies: 2;1;1; blunt (annealed; only one strand given)
# [1] = target: Cep3 (wild type, core complex);Ctf13;Skp1delta (Saccharomyces cerevisiae;Saccharomyces …, UniProt P40969;P35203;P52286 1-608;1-478;1-194, ||del37-64); assay: EMSA; no lambda phosphatase; 1 uM protein, 0.1 uM DNA; EMSA: complex (final buffer 10 mM HEPES, 300 mM NaCl, 1 mM DTT) mixed with DNA, 200 units lambda phosphatase and 1 mM MnCl2, 30 C 30 min, 0.8% agarose gel in TBE; binding pH not stated
# Sequence of Cep3 (wild type, core complex);Ctf13;Skp1delta (P40969 whole entry, stated change not applied, chain 1 of 3, the tested form may be a part): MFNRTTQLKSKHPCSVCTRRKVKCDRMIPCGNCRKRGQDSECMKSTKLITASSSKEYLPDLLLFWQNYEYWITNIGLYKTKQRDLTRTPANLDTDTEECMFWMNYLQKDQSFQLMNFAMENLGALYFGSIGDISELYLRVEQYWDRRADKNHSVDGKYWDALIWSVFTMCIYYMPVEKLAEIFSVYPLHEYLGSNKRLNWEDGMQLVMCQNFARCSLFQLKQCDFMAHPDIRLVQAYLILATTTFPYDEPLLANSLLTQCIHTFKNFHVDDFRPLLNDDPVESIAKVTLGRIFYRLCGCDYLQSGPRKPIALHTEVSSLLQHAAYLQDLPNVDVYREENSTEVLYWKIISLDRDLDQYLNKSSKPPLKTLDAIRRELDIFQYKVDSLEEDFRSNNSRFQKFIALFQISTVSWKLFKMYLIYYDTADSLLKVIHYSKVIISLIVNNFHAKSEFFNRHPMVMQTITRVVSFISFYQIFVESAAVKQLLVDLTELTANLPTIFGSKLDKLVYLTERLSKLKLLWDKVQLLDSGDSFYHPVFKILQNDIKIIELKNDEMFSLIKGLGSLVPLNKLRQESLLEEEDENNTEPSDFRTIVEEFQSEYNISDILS
# Sequence of Cep3 (wild type, core complex);Ctf13;Skp1delta (P35203 whole entry, stated change not applied, chain 2 of 3, the tested form may be a part): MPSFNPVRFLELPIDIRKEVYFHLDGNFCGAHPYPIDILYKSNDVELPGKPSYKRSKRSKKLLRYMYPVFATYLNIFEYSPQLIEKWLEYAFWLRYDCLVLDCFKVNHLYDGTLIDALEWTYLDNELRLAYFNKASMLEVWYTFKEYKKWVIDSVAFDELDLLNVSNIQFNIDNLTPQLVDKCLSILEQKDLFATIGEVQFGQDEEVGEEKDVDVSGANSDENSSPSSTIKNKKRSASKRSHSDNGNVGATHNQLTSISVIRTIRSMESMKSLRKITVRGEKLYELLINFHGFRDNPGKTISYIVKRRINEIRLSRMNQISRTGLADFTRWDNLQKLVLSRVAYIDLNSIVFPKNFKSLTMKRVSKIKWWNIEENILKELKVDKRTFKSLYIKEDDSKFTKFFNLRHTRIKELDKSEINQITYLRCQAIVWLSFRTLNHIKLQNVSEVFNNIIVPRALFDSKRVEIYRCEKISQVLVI
# Sequence of Cep3 (wild type, core complex);Ctf13;Skp1delta (P52286 other isoform, or with tags, fused parts or gaps ||del37-64 | mutant, chain 3 of 3): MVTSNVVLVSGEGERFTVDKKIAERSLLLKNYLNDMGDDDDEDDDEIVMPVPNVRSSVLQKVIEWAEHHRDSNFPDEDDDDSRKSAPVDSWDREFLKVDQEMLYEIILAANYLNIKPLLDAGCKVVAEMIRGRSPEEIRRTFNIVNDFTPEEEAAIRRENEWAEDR
# [2] = target: Cep3 deltaGal4;Ctf13;Skp1 (wild type) (Saccharomyces cerevisiae;Saccharomyces …, UniProt P40969;P35203;P52286 47-608;1-478;1-194, ||); assay: EMSA; lambda phosphatase, 1 mM MnCl2; 0.3-1 uM protein; EMSA: complex (final buffer 10 mM HEPES, 300 mM NaCl, 1 mM DTT) mixed with DNA, 200 units lambda phosphatase and 1 mM MnCl2, 30 C 30 min, 0.8% agarose gel in TBE; binding pH not stated
# Sequence of Cep3 deltaGal4;Ctf13;Skp1 (wild type) (P40969 47-608, stated change not applied, chain 1 of 3): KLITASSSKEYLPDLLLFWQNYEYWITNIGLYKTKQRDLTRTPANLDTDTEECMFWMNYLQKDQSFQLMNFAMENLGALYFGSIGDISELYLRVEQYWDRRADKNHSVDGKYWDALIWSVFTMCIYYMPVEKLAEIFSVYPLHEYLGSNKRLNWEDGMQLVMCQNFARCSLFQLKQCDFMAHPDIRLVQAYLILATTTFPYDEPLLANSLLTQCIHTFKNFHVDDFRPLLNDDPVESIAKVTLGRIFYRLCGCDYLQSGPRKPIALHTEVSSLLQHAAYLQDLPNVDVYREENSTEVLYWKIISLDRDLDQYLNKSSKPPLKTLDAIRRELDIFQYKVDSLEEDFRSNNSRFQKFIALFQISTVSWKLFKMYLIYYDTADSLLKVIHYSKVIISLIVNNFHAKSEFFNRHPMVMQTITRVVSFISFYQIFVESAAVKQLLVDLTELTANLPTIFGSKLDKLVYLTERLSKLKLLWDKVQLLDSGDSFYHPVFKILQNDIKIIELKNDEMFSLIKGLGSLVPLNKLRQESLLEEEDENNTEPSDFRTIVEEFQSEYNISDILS
# Sequence of Cep3 deltaGal4;Ctf13;Skp1 (wild type) (P35203 whole entry, stated change not applied, chain 2 of 3, the tested form may be a part): as the sequence (P35203 whole entry, stated change not applied, chain 2 of 3, the tested form may be a part) above
# Sequence of Cep3 deltaGal4;Ctf13;Skp1 (wild type) (P52286 whole entry, stated change not applied, chain 3 of 3, the tested form may be a part): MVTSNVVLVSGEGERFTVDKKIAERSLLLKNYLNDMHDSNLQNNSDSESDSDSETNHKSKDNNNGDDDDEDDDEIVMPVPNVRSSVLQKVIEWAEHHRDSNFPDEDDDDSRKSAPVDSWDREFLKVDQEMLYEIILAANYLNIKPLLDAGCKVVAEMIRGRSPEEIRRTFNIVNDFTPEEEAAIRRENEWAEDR
# [3] = target: T1, Cep3 (wild type, core complex);Ctf13;Skp1 (wild type) (Saccharomyces cerevisiae;Saccharomyces …, UniProt P40969;P35203;P52286 1-608;1-478;1-194, ||); assay: EMSA; lambda phosphatase, 1 mM MnCl2; 0.3-1 uM protein, 0.1 uM DNA; EMSA: complex (final buffer 10 mM HEPES, 300 mM NaCl, 1 mM DTT) mixed with DNA, 200 units lambda phosphatase and 1 mM MnCl2, 30 C 30 min, 0.8% agarose gel in TBE; binding pH not stated
# T1 sequence (P40969 whole entry, chain 1 of 3): as the sequence (P40969 whole entry, stated change not applied, chain 1 of 3, the tested form may be a part) above
# T1 sequence (P35203 whole entry, chain 2 of 3): as the sequence (P35203 whole entry, stated change not applied, chain 2 of 3, the tested form may be a part) above
# T1 sequence (P52286 whole entry, chain 3 of 3): as the sequence (P52286 whole entry, stated change not applied, chain 3 of 3, the tested form may be a part) above
# [4] = target: T1, Cep3 (wild type, core …); assay: competition; EMSA, competitor 0.4-1.2 uM vs 0.1 uM N2; EMSA: complex (final buffer 10 mM HEPES, 300 mM NaCl, 1 mM DTT) mixed with DNA, 200 units lambda phosphatase and 1 mM MnCl2, 30 C 30 min, 0.8% agarose gel in TBE; binding pH not stated
# [5] = target: T1, Cep3 (wild type, core …); assay: competition; EMSA, competitor 0.4-1.2 uM vs 0.1 uM N2; same effect as CCG mutant; EMSA: complex (final buffer 10 mM HEPES, 300 mM NaCl, 1 mM DTT) mixed with DNA, 200 units lambda phosphatase and 1 mM MnCl2, 30 C 30 min, 0.8% agarose gel in TBE; binding pH not stated
binder,measurement,setting,value
56 bp WT CEN3 (dsDNA) DNA 1: TATTAGTGTATTTGATTTCCGAAAGTTAAAAAAGAAATAGTAAGAAATATATATTT DNA 2: AAATATATATTTCTTACTATTTCTTTTTTAACTTTCGGAAATCAAATACACTAATA,binding result,[1],binds
same,binding result,[2],no binding
same,binding result,[3],binds
"33 bp wild-type CEN3, unlabelled competitor (dsDNA) DNA 1: AAATATTAGTGTATTTGATTTCCGAAAGTTAAA DNA 2: TTTAACTTTCGGAAATCAAATACACTAATATTT",binding result,[4],binds
33 bp CCG mutant CEN3 (dsDNA) DNA 1: AAATATTAGTGTATTTGATTTGATAAAGTTAAA DNA 2: TTTAACTTTATCAAATCAAATACACTAATATTT,binding result,[4],no binding
33 bp double mutant CEN3 (dsDNA) DNA 1: AAATATTAGAACATTTGATTTGATAAAGTTAAA DNA 2: TTTAACTTTATCAAATCAAATGTTCTAATATTT,binding result,[5],no binding
